Biological target: Bh-RNase HC (RNase H1 catalytic domain) (Bacillus halodurans, UniProt Q9KEI9 59-196)
Test: X-ray crystallography

Sequence of Bh-RNase HC (RNase H1 catalytic domain) (Q9KEI9 59-196): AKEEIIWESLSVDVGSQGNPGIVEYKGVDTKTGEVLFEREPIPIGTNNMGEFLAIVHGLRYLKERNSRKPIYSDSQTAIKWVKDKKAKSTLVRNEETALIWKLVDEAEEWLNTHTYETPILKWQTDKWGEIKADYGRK

B1: RNA/DNA hybrid 6-mer (DNA:RNA)
RNA: ACAUCG
DNA: CGATGT
modifications: strand 1 printed ArCrArUrCG: ribonucleotides at 2-5, deoxy A1 and G6; strand 2 all DNA
  binding result: binds

From article PMC6097844
